Test results as given in patent US9175282B2, “Cellobiose 2-epimerase, its preparation and uses” (HAYASHIBARA CO., LTD., priority 2009, dated 2015).
“Also recorded” adds a separate entry of the source.

Key:
[1] = test system: cellobiose 2-epimerase; test: Effect of metal ions on the epimerase activity; format: biochemical, Caldicellusiruptor saccharolyticus ATCC43494; details: ions that inhibit the enzyme; listed as Caldicellulosiruptor saccharolyticus ATCC43494
[2] = Substrate specificities of the cellobiose 2-epimerase (summary Table 6); format: biochemical; details: listed as Caldicellulosiruptor saccharolyticus ATCC43494
Method: Reaction products formed from D-glucose, D-galactose, and D-mannose by the action of the cellobiose 2-epimerase of the present invention were investigated. D-Glucose, D-galactose, or D-mannose was dissolved into 50 mM acetate buffer (pH 6.0) to give a final concentration of 20% (w/v) to make into a substrate solution. To 0.1 ml of the substrate solution, 130 units/g-solid substrate for D-glucose and D-mannose (0.1 ml as the enzyme solution), or 500 units/g-solid substrate for D-galactose (0.1 ml as the enzyme solution), of the purified preparation of the recombinant cellobiose 2-epimerase, obtained by the method in Experiment 4-4, was admixed; and followed the enzyme reaction at 60° C. for 48 hours.
Each of them was dissolved into 20 mM acetate buffer (pH 6.0), admixed with the purified preparation of the recombinant cellobiose 2-epimerase, obtained by the method in Experiment 4-4, and followed the enzyme reaction under the conditions of 10% (w/v) substrate concentration, 60° C. for 72 hours. The amount of enzyme was set to 130 or 500 units/g-substrate when monosaccharide was used as the substrate, and to 1 or 130 units/g-substrate when disaccharide or trisaccharide was used as the substrate. Each reaction mixture was heated at 100° C. for 10 minutes to stop the reaction and subjected to HPLC analysis to determine the contents of isomerized saccharide, on a dry solid basis. The contents of epilactose and lactulose in the reaction mixture obtained using lactose as substrate were determined by GC analysis described in Experiment 1-2.
The physicochemical properties and substrate specificities of the cellobiose 2-epimerase from Caldicellulosiruptor saccharolyticus ATCC43494, obtained from above experiments, were shown in Table 6 together with those of conventional cellobiose 2-epimerases from Ruminococcus albus (excerpted from Non-Patent Document 3) and Eubacterium cellosolvens (excerpted from Non-Patent Document 4).

[3] = Lactose 2-epimerase activity of enzyme preparations; format: biochemical; details: purified enzyme
Method: Through the specification of the present invention, the activity of the cellobiose 2-epimerase was determined as a lactose 2-epimerase activity, which catalyzes epimerization of lactose to form epilactose, using lactose as the substrate obtainable in highly purified form at low cost. The lactose 2-epimerase activity was measured as follows. To 1,000 μl of substrate solution, which contains lactose to give a final concentration of 35.1 mM and acetate buffer (pH 6.0) to give a final concentration of 20 mM of the reaction solution, 200 μl of a enzyme solution was added to give a 1,200 μl of the reaction solution, followed by reaction at 50° C. for 20 minutes. The reaction was stopped by heating for 10 minutes in a boiling water bath. Then reaction mixture was subjected to HPLC chromatography to determine the amount of epilactose produced by the reaction. The HPLC chromatography was conducted at the following conditions; […]
Then, each seed culture broth was inoculated into 10 L of the same medium eight each in eight 11-L pressure steel bottles and cultured. […] The epimerase activity of the crude enzyme was determined to be 0.009 Unit/ml.
The enzyme preparation purified by the above process contained 0.9 mg protein, and its activity yield was 3.4% from the crude enzyme. […] The amount of protein was measured by Lowry method using bovine serum albumin as standard.

[4] = Optimum temperature and optimum pH of epimerase activity; format: biochemical; details: for Optimum pH: reacted at 50° C. for 20 minutes; for Optimum temperature: reacted at pH 6.0 for 20 minutes
Method: Through the specification of the present invention, the activity of the cellobiose 2-epimerase was determined as a lactose 2-epimerase activity, which catalyzes epimerization of lactose to form epilactose, using lactose as the substrate obtainable in highly purified form at low cost. The lactose 2-epimerase activity was measured as follows. To 1,000 μl of substrate solution, which contains lactose to give a final concentration of 35.1 mM and acetate buffer (pH 6.0) to give a final concentration of 20 mM of the reaction solution, 200 μl of a enzyme solution was added to give a 1,200 μl of the reaction solution, followed by reaction at 50° C. for 20 minutes. The reaction was stopped by heating for 10 minutes in a boiling water bath. Then reaction mixture was subjected to HPLC chromatography to determine the amount of epilactose produced by the reaction. The HPLC chromatography was conducted at the following conditions;
Using the purified cellobiose 2-epimerase preparation obtained by the method of Experiment 2, effects of temperature and pH on the epimerase activity were investigated according to the method of assaying the activity. The results were in FIG. 3 (optimum temperature) and FIG. 4 (optimum pH). The optimum temperature of the enzyme is 80° C. when reacted at pH 6.0 for 20 minutes. The optimum pH of the enzyme is 7.8 when reacted at 50° C. for 20 minutes.

[5] = Thermostability and pH stability (residual activity); details: incubated at pH 6.0 for 60 minutes
Method: The thermostability was determined as the residual activity of the enzyme, after incubated at given temperatures for 60 minutes in 10 mM acetate buffer (pH 6.0) followed by being cooled in cold water.

B1: cellobiose 2-epimerase of the present invention: thermostable cellobiose 2-epimerase of Caldicellusiruptor saccharolyticus ATCC43494, amino acid sequence of SEQ ID NO:10 with 390 residues (protein, listed as Caldicellulosiruptor saccharolyticus)
chain: MDITRFKEDLKAHLEEKIIPFWQSLKDDEFGGYYGYMDFNLNIDRKAQKGCILNSRILWFFSACYNVLKSEKCKEMAFHAFEFLKNKFWDKEYEGLFWSVSHKGVPVDVTKHVYVQAFGIYGLSEYYEASGDEEALHMAKRLFEILETKCKRENGYTEQFERNWQEKENRFLSENGVIASKTMNTHLHVLESYTNLYRLLKLDDVYEALEWIVRLFVDKIYKKGTGHFKVFCDDNWNELIKAVSYGHDIEASWLLDQAAKYLKDEKLKEEVEKLALEVAQITLKEAFDGQSLINEMIEDRIDRSKIWWVEAETVVGFFNAYQKTKEEKYLDAAIKTWEFIKEHLVDRRKNSEWLWKVNEDLEAVNMPIVEQWKCPYHNGRMCLEIIKRVD
In the case of B1, the “Inhibition by metal ions” value [1] is reported as “Al^3+, Fe^2+, Fe^3+,; also recorded: Pb^2+, Cu^2+, Zn^2+,; also recorded: Hg^2+”, the “Substrate specificity: Cellobiose” value ([2]; substrate Cellobiose) is reported as “epicellobiose” and the “Substrate specificity: D-Galactose” value ([2]; substrate D-Galactose) is reported as “Forming D-talose”. For the same molecule, the “Substrate specificity: D-Glucose” value ([2]; substrate D-Glucose) was “Forming D-mannose”, the “Substrate specificity: D-Mannose” value ([2]; substrate D-Mannose) was “Forming D-glucose” and the “Substrate specificity: Lactose” value ([2]; substrate Lactose) was “Forming epilactose”. The “Substrate specificity: Maltose” value ([2]; substrate Maltose) was “Forming epimaltose”, the Specific activity [3] was 26.9 unit/mg-protein and the “Optimum pH” value [4] was 7.8. It also gave an Optimum temperature [4] of 80 °C, an Optimum temperature ([4]; listed as Caldicellulosiruptor saccharolyticus ATCC43494) of 80 °C and an Optimum temperature ([4]; listed as purified cellobiose 2-epimerase preparation) of 80 °C.

B2: recombinant epimerase: cellobiose 2-epimerase expressed in E. coli transformant ETCS1 and purified by heat treatment and chromatography (protein, listed as Caldicellulosiruptor saccharolyticus)
chain: B1 chain
For B2, the “Thermostability (stable up to)” value [5] was “up to 70 °C”, the “Optimum pH” value [4] was “about 7.8” and the Optimum temperature [4] was “about 80 °C”.
